B1: CD207 (parent)
chain: MTVEKEAPDAHFTVDKQNISLWPR
B2: ZNF649 (parent)
chain: LTEHKRIHTGKKPHVCSLCGKAFY
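Further: lentivirally expressed fusions sorted by FACS into six bins by GFP to DsRed ratio, PSI derived from sequencing read proportions per bin multiplied by bin number.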

The variants in one series derive from B1. The experiment in a line: protein stability index of a GFP-peptide fusion (GPS, HEK-293T) (PSI 1-6); higher = more stable. The settings on record: c terminus: a fixed tail appended.
In the case of MCVEKEAPDAHFTVDKQNISLWPR [T2C], the protein stability index is 2.54. Turning to MDVEKEAPDAHFTVDKQNISLWPR [T2D], the protein stability index is 3.62.

As to MRVEKEAPDAHFTVDKQNISLWPR [T2R], the protein stability index worked out at 2.83. As to MHVEKEAPDAHFTVDKQNISLWPR [T2H], the protein stability index is 3.08. For the variant MAVEKEAPDAHFTVDKQNISLWPR [T2A], the protein stability index turned out to be 3.35. Turning to MMVEKEAPDAHFTVDKQNISLWPR [T2M], the protein stability index came to 3.86.

MLVEKEAPDAHFTVDKQNISLWPR [T2L]: the protein stability index worked out at 3.17. Consider MNVEKEAPDAHFTVDKQNISLWPR [T2N], for which the protein stability index was found to be 3.36. Turning to MGVEKEAPDAHFTVDKQNISLWPR [T2G], the protein stability index is 3.68.

Consider MKVEKEAPDAHFTVDKQNISLWPR [T2K], for which the protein stability index was determined as 3.65. Still for that read-out and setting: with MIVEKEAPDAHFTVDKQNISLWPR [T2I] the figure was 2.94.

For MWVEKEAPDAHFTVDKQNISLWPR [T2W], the protein stability index is 2.59. As to MQVEKEAPDAHFTVDKQNISLWPR [T2Q], the protein stability index was 3.54. As to MVVEKEAPDAHFTVDKQNISLWPR [T2V], the protein stability index is 3.21. With MFVEKEAPDAHFTVDKQNISLWPR [T2F], the protein stability index is 2.71.

With MSVEKEAPDAHFTVDKQNISLWPR [T2S], the protein stability index was 3.57. As to LTVEKEAPDAHFTVDKQNISLWPR [M1L], the protein stability index was found to be 3.07. The same measure, in the same setting: then ETVEKEAPDAHFTVDKQNISLWPR [M1E], with 3.36.

As to KTVEKEAPDAHFTVDKQNISLWPR [M1K], the protein stability index came to 2.81. Consider CTVEKEAPDAHFTVDKQNISLWPR [M1C], for which the protein stability index was 3.38. Still for that read-out and setting: then RTVEKEAPDAHFTVDKQNISLWPR [M1R], with 3.98. Same read-out and setting: with QTVEKEAPDAHFTVDKQNISLWPR [M1Q] the figure was 3.8.

Consider HTVEKEAPDAHFTVDKQNISLWPR [M1H], for which the protein stability index was 3.27. For the variant NTVEKEAPDAHFTVDKQNISLWPR [M1N], the protein stability index turned out to be 3.68. Turning to STVEKEAPDAHFTVDKQNISLWPR [M1S], the protein stability index came to 3.57. For YTVEKEAPDAHFTVDKQNISLWPR [M1Y], the protein stability index stood at 2.37. In the case of PTVEKEAPDAHFTVDKQNISLWPR [M1P], the protein stability index worked out at 4.17.

On to WTVEKEAPDAHFTVDKQNISLWPR [M1W], for which the protein stability index was determined as 3.13. Consider VTVEKEAPDAHFTVDKQNISLWPR [M1V], for which the protein stability index amounted to 3.76. Regarding GTVEKEAPDAHFTVDKQNISLWPR [M1G], the protein stability index amounted to 4.16. As to TTVEKEAPDAHFTVDKQNISLWPR [M1T], the protein stability index was 3.45. Same read-out and setting: with ITVEKEAPDAHFTVDKQNISLWPR [M1I] the figure was 2.8; with FTVEKEAPDAHFTVDKQNISLWPR [M1F], 2.11; with ATVEKEAPDAHFTVDKQNISLWPR [M1A], 3.62. Regarding DTVEKEAPDAHFTVDKQNISLWPR [M1D], the protein stability index is 4.23.

The variants in another series derive from B2. The description is as above. The note with it: c terminus: a fixed tail appended.
Turning to LTEHKRIHTGKKPHVCSLCMKAFY [G20M], the protein stability index came out at 2.56. Take LTEHKRIHTGKKPHVCSLCSKAFY [G20S]: the protein stability index came to 2.35. As for LTEHKRIHTGKKPHVCSLCKKAFY [G20K], the protein stability index was 1.24.

Consider LTEHKRIHTGKKPHVCSLCAKAFY [G20A], for which the protein stability index was found to be 3.75. For LTEHKRIHTGKKPHVCSLCRKAFY [G20R], the protein stability index was 2.05. As to LTEHKRIHTGKKPHVCSLCTKAFY [G20T], the protein stability index worked out at 1.55. For the variant LTEHKRIHTGKKPHVCSLCIKAFY [G20I], the protein stability index was found to be 1.91. Regarding LTEHKRIHTGKKPHVCSLCQKAFY [G20Q], the protein stability index came out at 3.04. Regarding LTEHKRIHTGKKPHVCSLCFKAFY [G20F], the protein stability index worked out at 1.97. As for LTEHKRIHTGKKPHVCSLCNKAFY [G20N], the protein stability index amounted to 3.49. Same read-out and setting: then LTEHKRIHTGKKPHVCSLCDKAFY [G20D], with 2.79. With LTEHKRIHTGKKPHVCSLCWKAFY [G20W], the protein stability index worked out at 2.59.

Consider LTEHKRIHTGKKPHVCSLCYKAFY [G20Y], for which the protein stability index turned out to be 2.9.

For LTEHKRIHTGKKPHVCSLCCKAFY [G20C], the protein stability index came out at 2.93. In the case of LTEHKRIHTGKKPHVCSLCVKAFY [G20V], the protein stability index turned out to be 1.94. On to LTEHKRIHTGKKPHVCSLCLKAFY [G20L], for which the protein stability index is 2.06. In the case of LTEHKRIHTGKKPHVCSLCHKAFY [G20H], the protein stability index came out at 1.6. LTEHKRIHTGKKPHVCSLCPKAFY [G20P]: the protein stability index worked out at 1.91.

In the case of LTEHKRIHTGKKPHVVSLCGKAFY [C16V], the protein stability index worked out at 2.2.

As for LTEHKRIHTGKKPHVYSLCGKAFY [C16Y], the protein stability index came to 2.23.

Regarding LTEHKRIHTGKKPHVTSLCGKAFY [C16T], the protein stability index was determined as 2.23.

As to LTEHKRIHTGKKPHVNSLCGKAFY [C16N], the protein stability index is 2.55.

LTEHKRIHTGKKPHVSSLCGKAFY [C16S]: the protein stability index amounted to 3.52. Consider LTEHKRIHTGKKPHVLSLCGKAFY [C16L], for which the protein stability index is 2.17. Regarding LTEHKRIHTGKKPHVQSLCGKAFY [C16Q], the protein stability index worked out at 1.93. On to LTEHKRIHTGKKPHVPSLCGKAFY [C16P], for which the protein stability index turned out to be 2.56.

For the variant LTEHKRIHTGKKPHVMSLCGKAFY [C16M], the protein stability index amounted to 2.75. On to LTEHKRIHTGKKPHVRSLCGKAFY [C16R], for which the protein stability index was found to be 2.4. Regarding LTEHKRIHTGKKPHVCSLCGEAFY [K21E], the protein stability index came to 2.67. Take LTEHKRIHTGKKPHVCSLCGFAFY [K21F]: the protein stability index is 1.73.

Consider LTEHKRIHTGKKPHVCSLCGMAFY [K21M], for which the protein stability index came to 1.98. Turning to LTEHKRIHTGKKPHVCSLCGYAFY [K21Y], the protein stability index worked out at 1.79. Same read-out and setting: then LTEHKRIHTGKKPHVCSLCGSAFY [K21S], with 2.44.

As to LTEHKRIHTGKKPHVCSLCGHAFY [K21H], the protein stability index was determined as 1.91. For LTEHKRIHTGKKPHVCSLCGLAFY [K21L], the protein stability index worked out at 1.77. LTEHKRIHTGKKPHVCSLCGIAFY [K21I]: the protein stability index is 2.11.

For the variant LTEHKRIHTGKKPHVCSLCGWAFY [K21W], the protein stability index is 2.15.

Consider LTEHKRIHTGKKPHVCSLCGGAFY [K21G], for which the protein stability index came out at 2.38. In the case of LTEHKRIHTGKKPHVCSLCGQAFY [K21Q], the protein stability index was 3.8.

Take LTEHKRIHTGKKPHVCSLCGDAFY [K21D]: the protein stability index came to 2.72. For the variant LTEHKRIHTGKKPHVCSLCGNAFY [K21N], the protein stability index turned out to be 3.08.

As to LTEHKRIHTGKKPHVCSLCGTAFY [K21T], the protein stability index was found to be 2.78.

On to LTEHKRIHTGKKPHVCSLCGPAFY [K21P], for which the protein stability index turned out to be 2.55. Still for that read-out and setting: then LTEHKRIHTGKKPHVCSLCGAAFY [K21A], with 2.03. For LTEHKRIHTGKKPHVCSLCGCAFY [K21C], the protein stability index worked out at 1.39. In the case of LTEHKRIHTGKKPHVCSLCGVAFY [K21V], the protein stability index is 3.11.

As to LTEHKRIHTGKKPHVCSLCGKVFY [A22V], the protein stability index was 2.85.

For LTEHKRIHTGKKPHVCSLCGKPFY [A22P], the protein stability index is 2.9. As for LTEHKRIHTGKKPHVCSLCGKEFY [A22E], the protein stability index amounted to 2.24. As to LTEHKRIHTGKKPHVCSLCGKRFY [A22R], the protein stability index is 3.22. For the variant LTEHKRIHTGKKPHVCSLCGKHFY [A22H], the protein stability index is 2.46. Same read-out and setting: with LTEHKRIHTGKKPHVCSLCGKMFY [A22M] the figure was 2.85. LTEHKRIHTGKKPHVCSLCGKIFY [A22I]: the protein stability index was found to be 2.62. Take LTEHKRIHTGKKPHVCSLCGKLFY [A22L]: the protein stability index came out at 2.27. As to LTEHKRIHTGKKPHVCSLCGKTFY [A22T], the protein stability index was found to be 3.41. As for LTEHKRIHTGKKPHVCSLCGKKFY [A22K], the protein stability index came out at 3.71. Take LTEHKRIHTGKKPHVCSLCGKCFY [A22C]: the protein stability index amounted to 2.55.

Take LTEHKRIHTGKKPHVCSLCGKSFY [A22S]: the protein stability index worked out at 2.55.

For LTEHKRIHTGKKPHVCSLCGKWFY [A22W], the protein stability index worked out at 2.48.

The record behind these values is the supplement of paper PMC10567573.
